Experiment [1] deals with T1, human BTLA (human, UniProt Q7Z6A9). In words: SPR. Background: In SPR one partner is held on a chip, and binding of the other changes the refractive index at the surface.
The target of experiment [2] is T1, human BTLA. Put plainly: SPR. The source holds these as a separate data set.
Experiment [3] addresses T1, human BTLA. Put plainly: FACS, 4C. (In general: A flow cytometer gives signals particle by particle.)

The values below come from EP3199551.

Read-outs that look alike come from different tables or passages of the source.

T1 sequence (Q7Z6A9 31-157): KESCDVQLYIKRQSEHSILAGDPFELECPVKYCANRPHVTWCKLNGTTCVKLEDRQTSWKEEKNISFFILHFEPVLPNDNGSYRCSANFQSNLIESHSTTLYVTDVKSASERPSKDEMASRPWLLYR

B1: hu Mab8D5 (IgG4 S228P) (antibody, V domains shown)
VH: EVQLVESGGGLVQPGGSLRLSCAASGFTISSYDMHWVRQATGKGLEWVSVIGPAGDTYYPGSVKGRFTISRENAKNSLYLQMNSLRAGDTAVYYCAREGMAAHNYYGMDVWGQGTTVTVSS
VL: not shown
On to B1, for which the figures for the Kd with human BTLA [1] and in the experiment with human BTLA [2] were 2.99 nM and 2.4 nM, respectively. The EC50 (as a rule, the midpoint of the concentration-response curve) with human BTLA [3] was around 12 nM.

B2: hu Mab8D5 G1 (IgG1) (antibody, V domains shown)
VH: EVQLVESGGGLVQPGGSLRLSCAASGFTISSYDMHWVRQATGKGLEWVSVIGPAGDTYYPGSVKGRFTISRENAKNSLYLQMNSLRAGDTAVYYCAREGMAAHNYYGMDVWGQGTTVTVSS
VL: not shown
The molecule B2 had an EC50 with human BTLA [3] of around 12 nM.
